The target in one series is T1, RPA (UniProt Q92372;Q92373;Q92374 1-609;1-279;1-104).
T1 sequence 1: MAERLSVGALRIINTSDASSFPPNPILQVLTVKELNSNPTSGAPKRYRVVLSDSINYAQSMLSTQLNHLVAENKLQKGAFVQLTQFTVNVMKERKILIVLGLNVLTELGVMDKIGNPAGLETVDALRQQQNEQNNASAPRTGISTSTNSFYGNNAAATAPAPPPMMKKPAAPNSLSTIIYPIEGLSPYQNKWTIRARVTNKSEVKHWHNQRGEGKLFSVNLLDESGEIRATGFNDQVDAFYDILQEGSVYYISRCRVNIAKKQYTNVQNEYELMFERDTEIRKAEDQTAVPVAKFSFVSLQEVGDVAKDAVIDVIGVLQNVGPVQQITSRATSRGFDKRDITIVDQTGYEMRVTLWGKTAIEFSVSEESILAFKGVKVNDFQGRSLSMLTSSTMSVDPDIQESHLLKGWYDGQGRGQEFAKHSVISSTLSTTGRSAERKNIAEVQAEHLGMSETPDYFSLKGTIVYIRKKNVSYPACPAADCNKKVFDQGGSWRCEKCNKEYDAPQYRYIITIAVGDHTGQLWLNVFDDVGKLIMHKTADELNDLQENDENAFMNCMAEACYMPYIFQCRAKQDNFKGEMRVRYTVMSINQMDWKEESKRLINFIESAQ
T1 sequence 2: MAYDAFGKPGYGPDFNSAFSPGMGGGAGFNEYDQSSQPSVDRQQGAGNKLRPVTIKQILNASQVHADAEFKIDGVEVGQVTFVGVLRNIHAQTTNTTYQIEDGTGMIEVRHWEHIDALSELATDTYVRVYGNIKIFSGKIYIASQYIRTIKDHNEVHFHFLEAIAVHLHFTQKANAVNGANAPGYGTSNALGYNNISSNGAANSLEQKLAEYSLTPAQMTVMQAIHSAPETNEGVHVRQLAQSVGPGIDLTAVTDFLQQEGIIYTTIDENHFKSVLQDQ
T1 sequence 3: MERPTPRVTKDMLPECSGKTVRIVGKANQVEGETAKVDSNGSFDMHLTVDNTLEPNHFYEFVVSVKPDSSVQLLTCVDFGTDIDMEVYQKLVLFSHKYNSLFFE
Briefly: EMSA; 1 mM EDTA; 50 ng RPA; 50 mM Tris-HCl pH 7.5, 1 mM EDTA, 1 mM DTT, 0.1 mg/ml BSA, 50 mM NaCl, 5% glycerol, 15 fmol DNA in 10 µl, room temperature 30 min; 5% PAGE in 1x TBE. The note with it: protein: recombinant; tags: 6xHis-GST on Rpa1 in plasmid pDB2129; copies: 1;1;1; label: 5' 32P on oligo461; 18 bp duplex with 5' overhang 31 nt on oligo461.

The target of series [1] is T2, Dna2 co-overexpressed with Cdc24-YFH and purified from fission yeast (S. pombe, UniProt Q9URU2 1-1397).
T2 construct: Dna2, S. pombe; The Dna2 chain of m29, written alone for the cross-links with Cdc24; source: fission yeast pxd1Δ cells, co-overexpressed with Cdc24-YFH, purified (anti-FLAG beads)
T2 sequence (looked up): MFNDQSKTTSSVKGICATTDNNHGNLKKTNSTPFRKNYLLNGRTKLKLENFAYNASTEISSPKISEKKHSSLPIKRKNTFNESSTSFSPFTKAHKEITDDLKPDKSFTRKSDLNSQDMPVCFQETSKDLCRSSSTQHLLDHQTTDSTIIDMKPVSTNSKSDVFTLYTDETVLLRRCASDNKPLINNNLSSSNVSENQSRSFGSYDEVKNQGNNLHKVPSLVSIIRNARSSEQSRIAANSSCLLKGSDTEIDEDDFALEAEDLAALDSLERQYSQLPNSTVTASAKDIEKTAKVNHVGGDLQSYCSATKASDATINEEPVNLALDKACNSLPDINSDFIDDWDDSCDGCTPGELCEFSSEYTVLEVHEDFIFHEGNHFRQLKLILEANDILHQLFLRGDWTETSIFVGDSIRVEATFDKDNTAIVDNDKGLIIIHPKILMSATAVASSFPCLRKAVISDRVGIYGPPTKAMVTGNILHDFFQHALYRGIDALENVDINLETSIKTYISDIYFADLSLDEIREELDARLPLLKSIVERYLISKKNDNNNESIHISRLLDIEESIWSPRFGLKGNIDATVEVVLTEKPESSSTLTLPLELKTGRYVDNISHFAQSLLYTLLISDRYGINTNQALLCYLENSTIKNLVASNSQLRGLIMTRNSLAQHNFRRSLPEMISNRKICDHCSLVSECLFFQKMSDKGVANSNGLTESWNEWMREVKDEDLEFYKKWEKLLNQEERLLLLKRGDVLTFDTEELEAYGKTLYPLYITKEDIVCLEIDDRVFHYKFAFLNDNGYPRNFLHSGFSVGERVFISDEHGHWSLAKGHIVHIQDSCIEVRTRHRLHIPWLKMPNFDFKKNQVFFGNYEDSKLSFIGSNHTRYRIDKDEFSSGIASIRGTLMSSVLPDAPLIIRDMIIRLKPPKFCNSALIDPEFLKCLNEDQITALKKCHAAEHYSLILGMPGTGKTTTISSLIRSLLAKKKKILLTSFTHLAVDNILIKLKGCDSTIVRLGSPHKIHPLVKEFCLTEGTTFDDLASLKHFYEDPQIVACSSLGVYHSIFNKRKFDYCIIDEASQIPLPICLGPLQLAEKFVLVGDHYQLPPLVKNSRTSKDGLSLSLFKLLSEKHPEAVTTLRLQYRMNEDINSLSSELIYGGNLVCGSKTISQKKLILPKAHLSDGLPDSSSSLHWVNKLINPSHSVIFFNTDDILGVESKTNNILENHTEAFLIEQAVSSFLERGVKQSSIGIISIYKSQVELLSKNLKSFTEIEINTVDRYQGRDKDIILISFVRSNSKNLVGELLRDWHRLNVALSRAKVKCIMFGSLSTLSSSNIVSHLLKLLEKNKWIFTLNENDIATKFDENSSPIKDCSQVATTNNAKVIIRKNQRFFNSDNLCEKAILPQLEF
Briefly: cross-linking; CXMS: Dna2-Cdc24-Pxd1(227–351) complex formed on anti-FLAG beads and eluted with 3× FLAG peptide; about 12 µg cross-linked by BS3 or DSS (0.5 mM, 1 h, room temperature), trypsin, LC-MS/MS, pLink. The following applies: both partners purified.

B1: 5' overhang DNA (oligo461/oligo463) (dsDNA)
DNA 1: CACGCTACCGAATTCTGACTTGCTAGGACATCTTTGCCCACGTTGACCC
DNA 2: GGGTCAACGTGGGCAAAG
With B1, the binding result with RPA is reported as “binds”.

B2: Cdc24-YFH co-overexpressed with Dna2 and purified from fission yeast (natural protein, S. pombe, UniProt O75004 1-501, looked up)
chain: MDFPGLIKKIKEDLENRLVEKSKQPAFTDYWLINKTISLLKEYPSGFSYPILINEIELACSERNKLDNVFSSLEWLTKSDAVIYLEDQFHFHCYDYYYTPIPSLKLKDSEENTCEMILHSSFYLLFHEPFNILKGSTLRFSQSRIHQKWYLRKQIRFLPTTSFVPVLQYAASKSFVKSMVESTEHEFFQIRDITISKSDQGVKRITVELGRIISLDKKGAFLIDNNTNFIHFSGTYHDFPKLLDKQQYLLIPFWSTVWEGSTNWQDGMIGILVILSENDFEEKKCDSWQVGRLAAVNSNFLVLDNNGQRVKILYSNSQKHYFKDTYIGDLLCISPINHSSDNLSDYSCVSDTTTEILSNLENPLSSNFLRNDLCKFSNLFSGVSGHLKIQPLTLVITGFVANLTRQSDLNTSLVLPEVNPLTAKMEVIDCLRNSFWAALRPNCVSYFASMISGFKELFQKEMEFPIYLDLKSYKLGFHWCDIYVDSEHNCHIQKINSLPCE
notes: Cdc24, S. pombe; The Cdc24 chain of m29, written alone for the cross-links; source: fission yeast pxd1Δ cells, co-overexpressed with Dna2, purified (anti-FLAG beads)
Regarding B2, the binding result in series [1] is reported as “binds”.
